{"source": "paper PMC3192862", "about": "(Molecular Biology of the Cell, 2011)", "binders": {"B1": {"name": "For3(FH1) (domain or fragment, S. pombe, UniProt O94532 718-837, looked up)", "chain": "SDTVEEQQKLLLKSPPPPPPAVIVPTPAPAPIPVPPPAPIMGGPPPPPPPPGVAGAGPPPPPPPPPAVSAGGSRYYAPAPQAEPEPKIDETSLTEEQKIQLEEARKQRKAADDAARAAIE"}, "B2": {"name": "Cdc12(FH1) (domain or fragment, S. pombe, UniProt Q10059 882-972, looked up)", "chain": "NNSKITNFDIPNDATSLPTIITHPTPPPPPPLPVKTSLNTFSHPDSVNIVANDTSVAGVMPAFPPPPPPPPPLVSAAGGKFVSPAVSNNIS"}, "B3": {"name": "Fus1(FH1) (domain or fragment, S. pombe, UniProt Q10719 792-862, looked up)", "chain": "MRIKEVIDGNPFKAPPPAPLPPPAPPLPTAMSSLQKFEKNDSQIFRKTIIIPENISIDDIFKFCSGSESEV"}, "B4": {"name": "Cdc12(FH2), wild type (domain or fragment, S. pombe, UniProt Q10059 973-1390, looked up)", "chain": "KDDLHKTTGLTRRPTRRLKQMHWEKLNSGLEFTFWTGPSDEANKILETLHTSGVLDELDESFAMKEAKTLVKKTCARTDYMSSELQKLFGIHFHKLSHKNPNEIIRMILHCDDSMNECVEFLSSDKVLNQPKLKADLEPYRIDWANGGDLVNSEKDASELSRWDYLYVRLIVDLGGYWNQRMNALKVKNIIETNYENLVRQTKLIGRAALELRDSKVFKGLLYLILYLGNYMNDYVRQAKGFAIGSLQRLPLIKNANNTKSLLHILDITIRKHFPQFDNFSPELSTVTEAAKLNIEAIEQECSELIRGCQNLQIDCDSGALSDPTVFHPDDKILSVILPWLMEGTKKMDFLKEHLRTMNTTLNNAMRYFGEQPNDPNSKNLFFKRVDSFIIDYSKARSDNLKSEEEEASQHRRLNLVN"}, "B5": {"name": "Cdc12(FH2) K991A (domain or fragment, S. pombe, UniProt Q10059 973-1390, looked up)", "chain": "B4 chain with K19A"}, "B6": {"name": "Cdc12(FH2) I1063A (domain or fragment, S. pombe, UniProt Q10059 973-1390, looked up)", "chain": "B4 chain with I91A"}, "B7": {"name": "Cdc12(FH2) K1226A (domain or fragment, S. pombe, UniProt Q10059 973-1390, looked up)", "chain": "B4 chain with K254A"}, "B8": {"name": "Cdc12(FH2) G1201R, N1202P (domain or fragment, S. pombe, UniProt Q10059 973-1390, looked up)", "chain": "B4 chain with G229R, N230P"}}, "note": "Residue numbers refer to the chain shown, from its start. In names and notes the source's numbering stands.", "data": [{"target": "T1, fission yeast profilin (fission yeast, UniProt P39825 1-127)", "T1 sequence (looked up)": "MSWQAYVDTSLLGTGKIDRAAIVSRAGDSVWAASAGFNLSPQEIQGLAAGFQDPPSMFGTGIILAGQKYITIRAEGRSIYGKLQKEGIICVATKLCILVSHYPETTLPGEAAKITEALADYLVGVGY", "assay": "other fluorescence titration", "units": {"Kd": "nM"}, "values": [{"binder": "B1", "Kd": 6500}, {"binder": "B2", "Kd": 1700}, {"binder": "B3", "Kd": 1300}]}, {"target": "the molecule itself", "assay": "SEC", "values": [{"binder": "B4", "binding result": "binds"}, {"binder": "B5", "binding result": "binds"}, {"binder": "B6", "binding result": "binds"}, {"binder": "B7", "binding result": "binds"}, {"binder": "B8", "binding result": "binds"}]}]}
